# Laboratory results from the Human Domainome abundance scans (Beltran et al. 2025).
# ± gives the uncertainty stated by the source.
# B1: Pre-mRNA-processing factor 40 homolog B, residues 274 to 332; numbered along this chain, Q6NWY9 (parent)
# chain: SNREKAKQAFKELLRDKAVPSNASWEQAMKMVVTDPRYSALPKLSEKKQAFNAYKAQRE
# Variants of: B1
# Assay: abundance fitness (aPCA) (normalised: wild type 0, dead -1); higher = more abundant; growth selection in yeast, the domain comes from the species named
# Settings: Homo sapiens
row,Variant,abundance fitness
1,R37W,-0.836 ± 0.085
2,R37F,-0.905 ± 0.21
3,S1G,0.07 ± 0.087
4,S1M,-0.364 ± 0.38
5,S1E,-0.206 ± 0.24
6,S1N,-0.042 ± 0.18
7,E46V,-0.672 ± 0.073
8,E46M,-0.413 ± 0.095
9,E46S,-0.716 ± 0.083
10,A23K,-0.459 ± 0.1
11,A23N,-0.335 ± 0.12
12,A23F,-0.348 ± 0.14
13,A23R,-0.506 ± 0.068
14,P42I,-0.283 ± 0.16
15,P42N,-0.628 ± 0.17
16,P42E,0.018 ± 0.079
17,P42W,-0.602 ± 0.084
18,P42T,-0.093 ± 0.11
19,A9D,0.09 ± 0.12
20,A9Y,-0.417 ± 0.21
21,A9E,-0.038 ± 0.088
22,Q27F,-0.884 ± 0.23
23,Q27C,-0.422 ± 0.11
24,Q27W,-1 ± 0.095

row,Variant,abundance fitness
1,Q27K,-0.292 ± 0.12
2,Q27E,0.115 ± 0.11
3,A28G,-0.48 ± 0.055
4,N22K,-0.553 ± 0.11
5,N22Y,-0.57 ± 0.15
6,S24H,-0.344 ± 0.15
7,S24D,-0.355 ± 0.12
8,S24A,-0.238 ± 0.063
9,S24G,-0.366 ± 0.064
10,S24F,-0.654 ± 0.13
11,S24P,-0.169 ± 0.13
12,V33S,0.198 ± 0.073
13,V33A,0.141 ± 0.074
14,V33H,0.164 ± 0.14
15,V33K,0.169 ± 0.12
16,V33E,0.169 ± 0.093
17,A53F,-0.835 ± 0.18
18,A53D,0.042 ± 0.1
19,A53N,-0.079 ± 0.16
20,A53E,0.317 ± 0.08
21,L14D,-0.504 ± 0.11
22,L14M,-0.639 ± 0.1
23,L14R,-0.71 ± 0.067
24,L14Y,-0.925 ± 0.18

row,Variant,abundance fitness
1,K43R,-0.064 ± 0.049
2,K43E,0.035 ± 0.075
3,K43L,-0.196 ± 0.067
4,E12V,-0.705 ± 0.077
5,E12R,-0.62 ± 0.073
6,N2E,-0.089 ± 0.1
7,Q8L,-0.108 ± 0.089
8,Q8T,-0.065 ± 0.14
9,Q49D,0.021 ± 0.18
10,Q49I,-0.307 ± 0.18
11,F10L,-0.424 ± 0.11
12,E59Q,-0.033 ± 0.13
13,R58D,-0.244 ± 0.21
14,R58K,0.008 ± 0.23
15,M29G,-0.237 ± 0.058
16,M31F,-0.634 ± 0.19
17,M31P,-0.247 ± 0.15
18,M31Q,-0.246 ± 0.15
19,M31Y,-0.32 ± 0.14
20,V32C,-0.113 ± 0.078
21,V32H,-0.091 ± 0.13
22,V32Y,-0.583 ± 0.12
23,S39C,-0.141 ± 0.094
24,S39R,0.032 ± 0.061

row,Variant,abundance fitness
1,A40Q,-0.417 ± 0.34
2,A40L,0.008 ± 0.12
3,A50N,-0.629 ± 0.13
4,K48R,-0.196 ± 0.078
5,K48L,0.122 ± 0.08
6,K48P,-0.306 ± 0.13
7,R3P,0.034 ± 0.082
8,R3S,0.076 ± 0.089
9,R3N,0.221 ± 0.23
10,R3D,0.036 ± 0.19
11,R3G,-0.084 ± 0.072
12,T34F,-0.382 ± 0.15
13,T34M,-0.071 ± 0.089
14,T34E,-0.039 ± 0.09
15,K55P,-0.359 ± 0.093
16,S45E,-0.027 ± 0.1
17,S45A,-0.136 ± 0.078
18,S45D,-0.097 ± 0.098
19,S45I,-0.458 ± 0.15
20,S45L,-0.541 ± 0.092
21,Y38E,-0.399 ± 0.08
22,Y38S,-0.293 ± 0.059
23,A56P,-0.454 ± 0.1
24,A56N,-0.18 ± 0.13

row,Variant,abundance fitness
1,A56M,-0.127 ± 0.097
2,Q57D,0.158 ± 0.097
3,Q57F,-0.514 ± 0.12
4,Q57H,-0.149 ± 0.11
5,K11F,0.061 ± 0.12
6,K11N,-0.137 ± 0.16
7,K11Q,0.343 ± 0.13
8,K11W,0.082 ± 0.1
9,K11G,-0.16 ± 0.07
10,V19A,-0.612 ± 0.085
11,V19F,-0.932 ± 0.14
12,V19D,-0.295 ± 0.13
13,V19I,-0.462 ± 0.13
14,L41S,-0.519 ± 0.065
15,L41V,-0.16 ± 0.073
16,N52G,-0.282 ± 0.065
17,D35S,-0.716 ± 0.097
18,D35E,-0.372 ± 0.084
19,L13G,-0.331 ± 0.056
20,L13F,-0.668 ± 0.13
21,L13H,-0.411 ± 0.13
22,K17R,-0.107 ± 0.061
23,K17T,-0.429 ± 0.091
24,A18P,-0.606 ± 0.096

row,Variant,abundance fitness
1,D16L,-0.584 ± 0.075
2,W25Q,-0.36 ± 0.3
3,W25H,-0.347 ± 0.22
4,W25T,-0.149 ± 0.093
5,W25S,-0.13 ± 0.075
6,K30C,-0.423 ± 0.16
7,K30Y,-1.08 ± 0.23
8,K30D,-0.411 ± 0.12
9,K47R,-0.142 ± 0.062
10,A6R,-0.381 ± 0.059
11,A6K,-0.243 ± 0.14
12,A6I,-0.153 ± 0.16
13,A6H,-0.201 ± 0.16
14,A6S,-0.194 ± 0.084
15,K5S,-0.055 ± 0.071
16,K5V,-0.063 ± 0.066
17,K5Q,-0.07 ± 0.14
18,K5R,-0.193 ± 0.057
19,S21R,-0.083 ± 0.073
20,S21E,-0.054 ± 0.12
21,S21C,-0.001 ± 0.1
22,S21T,0.06 ± 0.093
23,S21M,0.074 ± 0.11
24,S21F,0.029 ± 0.11

row,Variant,abundance fitness
1,S21K,0.134 ± 0.12
2,S21D,-0.077 ± 0.1
3,S21Q,0.014 ± 0.13
4,K7H,0.065 ± 0.12
5,K7V,0.124 ± 0.062
6,K7F,0.104 ± 0.13
7,E4L,-0.23 ± 0.081
8,E4M,-0.41 ± 0.1
9,E4D,-0.01 ± 0.099
10,E4H,-0.082 ± 0.23
11,P36W,-0.669 ± 0.092
12,P36M,-0.607 ± 0.1
13,P36T,-0.293 ± 0.1
14,R15D,-0.238 ± 0.16
15,R15P,-0.593 ± 0.12
16,R15M,0.219 ± 0.2
17,R15Y,-0.091 ± 0.18
18,R15W,-0.106 ± 0.1
19,P20S,-0.506 ± 0.066
20,P20E,-0.364 ± 0.064
21,P20G,-0.391 ± 0.05
22,L44I,-0.101 ± 0.13
23,L44T,-0.337 ± 0.12
